We go through 3 molecules from patent US20260167699A1 (Chugai, published 2026).

In general, Kd refers to a measure of binding affinity in units of concentration. Lower therefore signals tighter binding.

Assay [1] deals with T1, FcγRIa extracellular domain with C-terminal His tag (human, UniProt P12314 16-292).
T1 construct: extracellular domain
The assay is described as follows: SPR (Biacore), captured antibody, FcγR analyte, 1:1 Langmuir fit. In general terms: SPR reads the build-up and loss of mass on a sensor chip optically.
Experimental: (§1) The antibody of interest was analyzed for its interaction with FcγR using a BiaCore™ T100, BiaCore™ A100, or BiaCore™ 4000 surface plasmon resonance system (GE Healthcare Japan Corp.). The running buffer used was HBS-EP+ (GE Healthcare Japan Corp.). The assay temperature was set to 25° C. The sensor chips used were: a chip prepared by immobilizing antigenic peptides onto Series S Sensor Chip CM5 (GE Healthcare Japan Corp.) by the amine coupling method; a chip prepared by immobilizing antigenic peptides biotinylated in advance onto Series S Sensor Chip SA (certified) (GE Healthcare Japan Corp.) through their interaction; a chip prepared by immobilizing protein L (ACTIGEN, BioVision, Inc.) onto Series S Sensor Chip CM5 (GE Healthcare Japan Corp.); and a chip prepared by immobilizing protein A/G (Thermo Fisher Scientific K.K.) onto Series S Sensor Chip CM5 (GE Healthcare Japan Corp.). The antibody of interest was captured onto any of these chips and allowed to interact with FcγR diluted with a running buffer. The antibody captured on the chip was washed off through the reaction of 10 mM glycine-HCl (pH 1.5) to regenerate the chip, which was repetitively used.

Assay [2] addresses T2, FcγRIIa(R) extracellular domain with C-terminal His tag (human, UniProt P12318 34-217).
T2 construct: extracellular domain; polymorphic form R131; also called FcγRIIa R type
T2 sequence: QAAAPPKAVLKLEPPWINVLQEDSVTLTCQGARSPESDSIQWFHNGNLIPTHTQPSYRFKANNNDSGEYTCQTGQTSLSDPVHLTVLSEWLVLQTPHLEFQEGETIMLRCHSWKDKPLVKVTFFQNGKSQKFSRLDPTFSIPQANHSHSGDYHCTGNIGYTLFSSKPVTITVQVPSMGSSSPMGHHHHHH
The assay is described as above.
Experimental: as §1

The target in assay [3] is T3, FcγRIIa(H) extracellular domain with C-terminal His tag (human, UniProt P12318 34-217).
T3 construct: extracellular domain; polymorphic form H131; also called FcγRIIa H type
T3 sequence: T2 sequence with R134H
The assay is described as above.
Experimental: as §1

Assay [4] addresses T4, FcγRIIIa(F) extracellular domain with C-terminal His tag (human, UniProt P08637 17-208).
T4 construct: extracellular domain; polymorphic form F158; also called FcγRIIIa F type
The assay is described as above.
Experimental: as §1

For assay [5], the target named is T5, FcγRIIIa(V) extracellular domain with C-terminal His tag (human, UniProt P08637 17-208).
T5 construct: extracellular domain; polymorphic form V158; also called FcγRIIIa V type
T5 sequence (P08637 other isoform, or with tags, fused parts or gaps): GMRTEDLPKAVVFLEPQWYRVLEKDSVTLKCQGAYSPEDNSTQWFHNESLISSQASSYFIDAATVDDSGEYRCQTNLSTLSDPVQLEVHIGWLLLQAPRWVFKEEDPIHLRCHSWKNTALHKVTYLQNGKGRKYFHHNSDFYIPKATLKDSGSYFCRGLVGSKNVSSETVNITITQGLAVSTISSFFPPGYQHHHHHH
Described as above.
Experimental: as §1

In assay [6] the target is T1, FcγRIa extracellular domain with …. The description is as above. This is another data set of the same source.
Experimental: as §1
Assay [7] has as its target T2, FcγRIIa(R) extracellular domain with …. The assay is described as above. This is another data set of the same source.
Experimental: as §1
Assay [8] concerns the target T3, FcγRIIa(H) extracellular domain with …. The assay is described as above. This is another data set of the same source.
Experimental: as §1
In assay [9] the target is T4, FcγRIIIa(F) extracellular domain with …. Described as above. The source holds these as a separate data set.
Experimental: as §1
Assay [10] deals with T5, FcγRIIIa(V) extracellular domain with …. Described as above. This is another data set of the same source.
Experimental: as §1
Assay [11] deals with T6, FcγRIIb extracellular domain with C-terminal His tag (human, UniProt P31994 43-217).
T6 construct: extracellular domain
T6 sequence: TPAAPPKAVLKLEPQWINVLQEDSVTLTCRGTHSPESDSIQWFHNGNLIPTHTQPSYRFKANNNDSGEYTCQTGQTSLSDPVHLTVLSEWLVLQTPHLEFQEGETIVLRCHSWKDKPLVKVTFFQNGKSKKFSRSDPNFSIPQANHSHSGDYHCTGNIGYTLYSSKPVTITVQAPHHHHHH
In words: SPR (Biacore), captured antibody, FcγR analyte, 1:1 Langmuir fit; naturally occurring IgG1 (not afucosylated).
Experimental: as §1

Assay [12] deals with T6, FcγRIIb extracellular domain with …. The assay is described as follows: SPR (Biacore), captured antibody, FcγR analyte, 1:1 Langmuir fit; afucosylated G1d; Table 8 reprint of Table 7.
Experimental: as §1
The target is the same in assay [13]. In words: SPR (Biacore), captured antibody, FcγR analyte, 1:1 Langmuir fit; afucosylated antibody (same sequence as G1d, other glycoform).
Assay [14] addresses T7, FcγRIIa H extracellular domain with C-terminal His tag (UniProt P12318 34-217, limits assumed).
T7 construct: extracellular domain; also called 2aH
T7 sequence: T2 sequence with R134H
The assay is described as follows: SPR (Biacore), as the text refers to Example 3.

Assay [15] deals with T8, FcγRIIa R extracellular domain with C-terminal His tag (UniProt P12318 34-217, limits assumed).
T8 construct: extracellular domain; also called 2aR
T8 sequence: T2 sequence
In words: SPR (Biacore), as the text refers to Example 3.

For assay [16], the target named is T9, FcγRIIb extracellular domain with C-terminal His tag (UniProt P31994 43-217, limits assumed).
T9 construct: extracellular domain; also called 2b
T9 sequence: T6 sequence
In words: SPR (Biacore), as the text refers to Example 3.

In assay [17] the target is T10, FcγRIa extracellular domain with C-terminal His tag (UniProt P12314 16-292, limits assumed).
T10 construct: extracellular domain; also called 1a
T10 sequence (P12314 other isoform, or with tags, fused parts or gaps limits assumed): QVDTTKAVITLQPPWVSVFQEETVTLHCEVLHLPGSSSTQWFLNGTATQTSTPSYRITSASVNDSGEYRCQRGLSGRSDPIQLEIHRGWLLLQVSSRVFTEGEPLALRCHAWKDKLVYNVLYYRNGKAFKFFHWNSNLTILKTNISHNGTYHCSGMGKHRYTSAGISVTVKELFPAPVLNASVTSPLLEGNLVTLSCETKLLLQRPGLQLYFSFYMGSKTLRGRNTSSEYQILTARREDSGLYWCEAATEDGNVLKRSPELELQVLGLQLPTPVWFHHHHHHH
In words: SPR (Biacore), as the text refers to Example 3.

Numbering of substitutions follows the chain as printed. Like-named read-outs stand apart in the source and are kept apart here.

T4 sequence (P08637 other isoform, or with tags, fused parts or gaps): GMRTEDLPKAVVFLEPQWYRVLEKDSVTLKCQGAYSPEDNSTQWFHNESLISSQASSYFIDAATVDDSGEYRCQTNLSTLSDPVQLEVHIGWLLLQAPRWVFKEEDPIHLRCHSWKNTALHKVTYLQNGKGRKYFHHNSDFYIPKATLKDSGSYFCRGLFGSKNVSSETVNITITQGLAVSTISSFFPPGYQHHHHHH
T1 sequence (P12314 other isoform, or with tags, fused parts or gaps): as the sequence (P12314 other isoform, or with tags, fused parts or gaps limits assumed) above

B1: H240-G1d/L73-k0 (antibody, human IgG1, kappa)
heavy: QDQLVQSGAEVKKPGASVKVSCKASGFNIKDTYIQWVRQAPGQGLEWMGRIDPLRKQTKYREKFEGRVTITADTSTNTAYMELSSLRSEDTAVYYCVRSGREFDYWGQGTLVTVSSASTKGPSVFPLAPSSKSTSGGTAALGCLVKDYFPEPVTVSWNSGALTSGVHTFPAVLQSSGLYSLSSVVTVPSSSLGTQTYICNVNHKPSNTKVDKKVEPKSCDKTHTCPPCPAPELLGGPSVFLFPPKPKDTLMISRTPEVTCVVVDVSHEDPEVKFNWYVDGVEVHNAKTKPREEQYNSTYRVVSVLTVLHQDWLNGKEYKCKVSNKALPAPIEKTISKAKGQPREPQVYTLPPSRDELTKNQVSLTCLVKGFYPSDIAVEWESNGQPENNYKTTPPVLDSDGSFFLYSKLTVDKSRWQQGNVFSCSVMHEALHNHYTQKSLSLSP
light: DIQMTQSPSSLSASVGDRVTITCRASQDIHKYIAWYQQKPGQAPRLLIQYTSTLQPGVPSRFSGSGSGTDYTFTISSLQPEDIATYYCLQYEQLRTFGGGTKVEIKRTVAAPSVFIFPPSDEQLKSGTASVVCLLNNFYPREAKVQWKVDNALQSGNSQESVTEQDSKDSTYSLSSTLTLSKADYEKHKVYACEVTHQGLSSPVTKSFNRGEC
notes: anti-epiregulin IgG1; also called H240-G1d/H240-G1d/L73-k0; naturally occurring IgG1
In the case of B1, the Kd in assay [1] was 0.23 nM; in [2], 880 nM; in assay [3], 660 nM; in [4], 1400 nM; in assay [5], 310 nM; in assay [6] it was 0.23 nM. Also, the Kd worked out at 880 nM in [7]; 660 nM in assay [8]; 1400 nM in assay [9]; 310 nM in assay [10]; 6000 nM in [11].

B2: H240-afucosyl_G1d/L73-k0 (antibody, human IgG1, kappa)
heavy: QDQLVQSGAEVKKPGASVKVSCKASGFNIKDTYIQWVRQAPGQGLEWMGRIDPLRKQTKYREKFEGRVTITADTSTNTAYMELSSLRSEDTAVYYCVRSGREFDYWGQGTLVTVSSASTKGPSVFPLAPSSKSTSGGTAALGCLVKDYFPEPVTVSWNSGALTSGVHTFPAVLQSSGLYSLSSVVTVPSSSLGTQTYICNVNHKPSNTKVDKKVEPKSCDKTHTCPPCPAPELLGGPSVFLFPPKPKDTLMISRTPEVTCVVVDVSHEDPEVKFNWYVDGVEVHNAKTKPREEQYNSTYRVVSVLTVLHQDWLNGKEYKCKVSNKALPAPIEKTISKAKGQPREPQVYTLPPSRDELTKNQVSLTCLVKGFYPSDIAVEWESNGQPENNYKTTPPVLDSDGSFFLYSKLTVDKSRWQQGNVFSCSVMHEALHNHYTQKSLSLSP
light: B1 light
modifications: afucosylated (fucose-deficient sugar chain)
notes: afucosylated form of the anti-epiregulin IgG1 H240-G1d/L73-k0; also called afucosylated antibody
As to B2, the Kd is 0.43 nM in [1]; 490 nM in assay [2]; 780 nM in assay [3]; 78 nM in assay [4]; 6.9 nM in [5]; 0.43 nM in [6]. Besides, the Kd in assay [7] was 490 nM; in assay [8] it was 780 nM; in assay [9], 78 nM; in [10] it was 6.9 nM; in assay [12], 2600 nM; in assay [13], 2600 nM.

B3: GpH7-B3/GpL16-k0 (antibody, human IgG1, kappa)
heavy: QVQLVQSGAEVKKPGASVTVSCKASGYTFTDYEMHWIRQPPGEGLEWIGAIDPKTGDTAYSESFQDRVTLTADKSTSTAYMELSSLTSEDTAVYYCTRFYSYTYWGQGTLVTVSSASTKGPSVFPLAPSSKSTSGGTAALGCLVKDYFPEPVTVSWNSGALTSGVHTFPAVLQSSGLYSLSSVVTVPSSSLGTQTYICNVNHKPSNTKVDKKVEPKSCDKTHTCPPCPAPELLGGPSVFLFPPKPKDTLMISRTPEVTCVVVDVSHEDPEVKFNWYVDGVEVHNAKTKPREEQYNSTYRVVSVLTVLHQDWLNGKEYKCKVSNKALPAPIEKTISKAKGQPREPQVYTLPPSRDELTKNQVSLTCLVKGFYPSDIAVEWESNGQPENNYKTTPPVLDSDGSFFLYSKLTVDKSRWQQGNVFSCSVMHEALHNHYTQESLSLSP
light: DIVMTQSPLSLPVTPGEPASISCQASESLVHSNRNTYLHWYLQKPGQSPQLLIYKVSNRFSGVPDRFSGSGSGTDFTLKISRVEAEDVGVYYCSQNTHVPPTFGQGTKVEIERTVAAPSVFIFPPSDEQLKSGTASVVCLLNNFYPREAKVQWKVDNALQSGNSQESVTEQDSKDSTYSLSSTLTLSKADYEKHKVYACEVTHQGLSSPVTKSFNRGEC
notes: also called HoCon Ab
As to B3, the binding result in assay [14], in assay [15], in assay [16] and in assay [17] was “binds” throughout.
